How the values were obtained:
Details in all cases: both partners purified
[1] = target: T1, HIV-1 integrase with native N-terminal phenylalanine (IN 1F), full-length, wild type (HIV-1 (NL4-3)); experiment: AUC; sedimentation equilibrium, 4 °C, same data and buffer as the monomer-dimer fit; attempted fit of a dimer-tetramer equilibrium: tetramer to dimers
T1 chain: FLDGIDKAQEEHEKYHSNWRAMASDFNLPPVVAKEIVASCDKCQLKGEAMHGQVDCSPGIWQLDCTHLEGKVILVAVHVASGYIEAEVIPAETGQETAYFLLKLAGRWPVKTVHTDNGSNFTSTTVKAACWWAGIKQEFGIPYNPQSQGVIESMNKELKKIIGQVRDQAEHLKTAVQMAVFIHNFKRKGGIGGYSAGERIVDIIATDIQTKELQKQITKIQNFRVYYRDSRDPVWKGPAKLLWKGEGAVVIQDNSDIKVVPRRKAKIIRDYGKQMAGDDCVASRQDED

[2] = target: T1, HIV-1 integrase with native N-terminal …; experiment: AUC; sedimentation equilibrium, 4 °C, 20 mM HEPES-NaOH pH 7.5, 1 M NaCl, 7 mM CHAPS, 10 µM ZnOAc2, 10 µM β-mercaptoethanol; global fit at 16, 20, 24 krpm (SEDPHAT); dimer to monomers
[3] = target: T1, HIV-1 integrase with native N-terminal …; experiment: SEC-MALS; Superdex 200 10/300, 25 °C, 20 mM HEPES-NaOH pH 7.5, 500 mM-1 M NaCl, 7 mM CHAPS, 10 µM ZnOAc2, 10 µM β-mercaptoethanol; eluted concentrations ~8-10 µM (IN 1F, IN MF); self-association

B1: HIV-1 integrase with native N-terminal phenylalanine (IN 1F), full-length, wild type (enzyme)
chain: FLDGIDKAQEEHEKYHSNWRAMASDFNLPPVVAKEIVASCDKCQLKGEAMHGQVDCSPGIWQLDCTHLEGKVILVAVHVASGYIEAEVIPAETGQETAYFLLKLAGRWPVKTVHTDNGSNFTSTTVKAACWWAGIKQEFGIPYNPQSQGVIESMNKELKKIIGQVRDQAEHLKTAVQMAVFIHNFKRKGGIGGYSAGERIVDIIATDIQTKELQKQITKIQNFRVYYRDSRDPVWKGPAKLLWKGEGAVVIQDNSDIKVVPRRKAKIIRDYGKQMAGDDCVASRQDED
modifications: Zn2+ bound in the NTD (H12, H16, C40, C43); native N-terminal Phe1; monomer-dimer equilibrium. Limits: the paper gives F1 as the start and full length; the integrase chain follows RT (ends at 1147) …
Kd [1]: > 1000 µM | Kd [2]: 59.8 µM | stoichiometry N [3]: 2

From PMC7457537, “Influence of the amino-terminal sequence on the structure and function of HIV integrase” (Retrovirology, 2020)
